Source: patent publication US20190031783A1 (AbbVie / Abbott, published 2019)

Assays:
[1] = molecular target: T1, purified recombinant human DLL4 extracellular domain (ECD) (human, UniProt Q9NR61 27-529); assay: Notch competition ELISA: inhibition of biotin DLL4 ECD binding to coated human Notch-1
T1 construct: extracellular domain; also called human DLL4529; huDLL4
Experimental: Plates were then washed 3× with wash buffer (PBS, 0.05% Tween-20) and blocked with 200 μl/well blocking buffer (D-PBS, 1% BSA, 1 mM CaCl₂, 0.05% Tween-20) for 1 hour at 25° C. […] Assay plates were washed after blocking, and incubated with DLL4/antibody mixtures (100 μl/well, 1 hour at 25° C. with shaking). Plates were washed again and 100 μl/well of streptavidin conjugated with HRP (Fitzgerald #65R-S104PHRPx, diluted 1:5,000 in blocking buffer) was added for 1 hour at 25° C. with shaking. After a final wash, plates were developed using 100 μl/well substrate (TMB Sigma #T8665), and the reaction was stopped using 100 μl/well 1N HCl, and the absorbance was read at 450 nm. Data was analyzed using Graphpad Prism software and IC₅₀ values were reported as the concentration of antibody required to achieve 50% reduction of DLL4 binding to Notch1.

[2] = molecular target: T1, purified recombinant human DLL4 …; assay: SPR (Biacore), DVD captured via anti-human Fc, DLL4 ECD injected, 25 C
Experimental: For DLL4 binding kinetic measurements the assay buffer was HBS-EPB: 10 mM Hepes, pH7.5, 150 mM NaCl, 3 mM EDTA, 0.005% Tween 20, 0.1 mg/ml BSA (Sigma A7906). For VEGF binding kinetic measurements the assay buffer was HBS-EP+(3N01B): 10 mM Hepes, pH7.5, 300 mM NaCl, 3 mM EDTA, 0.05% Tween 20, 0.1 mg/ml BSA (Sigma A7906). For example, approximately 9000 RU of goat anti-human Fc specific polyclonal antibody (Thermo Fisher Scientific Inc., Rockford, Ill.) diluted in 10 mM sodium acetate (pH 4.5) is directly immobilized across a CM5 research grade biosensor chip using a standard amine coupling kit according to manufacturer's instructions and procedures at 25 ug/ml. Unreacted moieties on the biosensor surface are blocked with ethanolamine. For kinetic analysis, rate equations derived from the 1:1 Langmuir binding model are fitted simultaneously to multiple antigen injections (using global fit analysis) with the use of Scrubber 2 (BioLogic Software), Biacore Biaevaluation 4.0.1 software or Biacore T100 Evaluation software. Purified antibodies are diluted in running buffer for capture across goat anti-human Fc reaction surfaces. Antibodies to be captured as a ligand (1 ug/ml) are injected over reaction matrices at a flow rate of 10 ul/min. During the assay, all measurements are referenced against the capture surface alone (i.e. with no captured antibody). […] The equilibrium dissociation constant KD (M) of the reaction between antibodies and the target antigen is then calculated from the kinetic rate constants by the following formula: KD=Koff/Kₒₙ. Binding is recorded as a function of time and kinetic rate constants are calculated.

Binder | IC50 [1] | Kd [2]
Av-LL-h1A11.1 (bispecific antibody, human IgG1, DVD-Ig) VH: EVQLVESGGGLVQPGGSLRLSCAASGYTFTNYGMNWVRQAPGKGLEWVGWINTYTGEPTYAADFKRRFTFSLDTSKSTAYLQMNSLRAEDTAVYYCAKYPHYYGSSHWYFDVWGQGTLVTVSSASTKGPSVFPLAPEVQLVESGGGLVQPGGSLRLSCAASGFTFSNFPMAWVRQAPGKGLEWVATISSSDGTTYYRDSVKGRFTISRDNAKNSLYLQMNSLRAEDTAVYYCARGYYNSPFAYWGQGTLVTVSS VL: DIQMTQSPSSLSASVGDRVTITCSASQDISNYLNWYQQKPGKAPKVLIYFTSSLHSGVPSRFSGSGSGTDFTLTISSLQPEDFATYYCQQYSTVPWTFGQGTKVEIKRTVAAPSVFIFPPDIQMTQSPSSLSASVGDRVTITCRASEDIYSNLAWYQQKPGKAPKLLIYDTNNLADGVPSRFSGSGSGTDFTLTISSLQPEDFATYYCQQYNNYPPTFGQGTKLEIKR | 2.43 nM | 
h1A11.1-GS14-Av (bispecific antibody, human IgG1, DVD-Ig) VH: EVQLVESGGGLVQPGGSLRLSCAASGFTFSNFPMAWVRQAPGKGLEWVATISSSDGTTYYRDSVKGRFTISRDNAKNSLYLQMNSLRAEDTAVYYCARGYYNSPFAYWGQGTLVTVSSGGGGSGGGGSGGGGEVQLVESGGGLVQPGGSLRLSCAASGYTFTNYGMNWVRQAPGKGLEWVGWINTYTGEPTYAADFKRRFTFSLDTSKSTAYLQMNSLRAEDTAVYYCAKYPHYYGSSHWYFDVWGQGTLVTVSS VL: DIQMTQSPSSLSASVGDRVTITCRASEDIYSNLAWYQQKPGKAPKLLIYDTNNLADGVPSRFSGSGSGTDFTLTISSLQPEDFATYYCQQYNNYPPTFGQGTKLEIKRGGSGGGGSGGGGSDIQMTQSPSSLSASVGDRVTITCSASQDISNYLNWYQQKPGKAPKVLIYFTSSLHSGVPSRFSGSGSGTDFTLTISSLQPEDFATYYCQQYSTVPWTFGQGTKVEIKR | 0.68 nM | 9.7 nM
Av-GS6-h1A11.1 (bispecific antibody, human IgG1, DVD-Ig) VH: EVQLVESGGGLVQPGGSLRLSCAASGYTFTNYGMNWVRQAPGKGLEWVGWINTYTGEPTYAADFKRRFTFSLDTSKSTAYLQMNSLRAEDTAVYYCAKYPHYYGSSHWYFDVWGQGTLVTVSSGGGGSGEVQLVESGGGLVQPGGSLRLSCAASGFTFSNFPMAWVRQAPGKGLEWVATISSSDGTTYYRDSVKGRFTISRDNAKNSLYLQMNSLRAEDTAVYYCARGYYNSPFAYWGQGTLVTVSS VL: DIQMTQSPSSLSASVGDRVTITCSASQDISNYLNWYQQKPGKAPKVLIYFTSSLHSGVPSRFSGSGSGTDFTLTISSLQPEDFATYYCQQYSTVPWTFGQGTKVEIKRGGSGGDIQMTQSPSSLSASVGDRVTITCRASEDIYSNLAWYQQKPGKAPKLLIYDTNNLADGVPSRFSGSGSGTDFTLTISSLQPEDFATYYCQQYNNYPPTFGQGTKLEIKR | 3.41 nM | 50 nM
Av-SL-h1A11.1 (bispecific antibody, human IgG1, DVD-Ig) VH: EVQLVESGGGLVQPGGSLRLSCAASGYTFTNYGMNWVRQAPGKGLEWVGWINTYTGEPTYAADFKRRFTFSLDTSKSTAYLQMNSLRAEDTAVYYCAKYPHYYGSSHWYFDVWGQGTLVTVSSASTKGPEVQLVESGGGLVQPGGSLRLSCAASGFTFSNFPMAWVRQAPGKGLEWVATISSSDGTTYYRDSVKGRFTISRDNAKNSLYLQMNSLRAEDTAVYYCARGYYNSPFAYWGQGTLVTVSS VL: DIQMTQSPSSLSASVGDRVTITCSASQDISNYLNWYQQKPGKAPKVLIYFTSSLHSGVPSRFSGSGSGTDFTLTISSLQPEDFATYYCQQYSTVPWTFGQGTKVEIKRTVAAPSVFIFPPDIQMTQSPSSLSASVGDRVTITCRASEDIYSNLAWYQQKPGKAPKLLIYDTNNLADGVPSRFSGSGSGTDFTLTISSLQPEDFATYYCQQYNNYPPTFGQGTKLEIKR | 7.38 nM | 

Continued by falling IC50 [1], values first:

IC50 [1] | Kd [2] | Binder
3500 nM |  | Av-SS-h1A11.1 (bispecific antibody, human IgG1, DVD-Ig) VH: EVQLVESGGGLVQPGGSLRLSCAASGYTFTNYGMNWVRQAPGKGLEWVGWINTYTGEPTYAADFKRRFTFSLDTSKSTAYLQMNSLRAEDTAVYYCAKYPHYYGSSHWYFDVWGQGTLVTVSSASTKGPEVQLVESGGGLVQPGGSLRLSCAASGFTFSNFPMAWVRQAPGKGLEWVATISSSDGTTYYRDSVKGRFTISRDNAKNSLYLQMNSLRAEDTAVYYCARGYYNSPFAYWGQGTLVTVSS VL: DIQMTQSPSSLSASVGDRVTITCSASQDISNYLNWYQQKPGKAPKVLIYFTSSLHSGVPSRFSGSGSGTDFTLTISSLQPEDFATYYCQQYSTVPWTFGQGTKVEIKRTVAAPDIQMTQSPSSLSASVGDRVTITCRASEDIYSNLAWYQQKPGKAPKLLIYDTNNLADGVPSRFSGSGSGTDFTLTISSLQPEDFATYYCQQYNNYPPTFGQGTKLEIKR
2.77 nM |  | Av-LS-h1A11.1 (bispecific antibody, human IgG1, DVD-Ig) VH: EVQLVESGGGLVQPGGSLRLSCAASGYTFTNYGMNWVRQAPGKGLEWVGWINTYTGEPTYAADFKRRFTFSLDTSKSTAYLQMNSLRAEDTAVYYCAKYPHYYGSSHWYFDVWGQGTLVTVSSASTKGPSVFPLAPEVQLVESGGGLVQPGGSLRLSCAASGFTFSNFPMAWVRQAPGKGLEWVATISSSDGTTYYRDSVKGRFTISRDNAKNSLYLQMNSLRAEDTAVYYCARGYYNSPFAYWGQGTLVTVSS VL: DIQMTQSPSSLSASVGDRVTITCSASQDISNYLNWYQQKPGKAPKVLIYFTSSLHSGVPSRFSGSGSGTDFTLTISSLQPEDFATYYCQQYSTVPWTFGQGTKVEIKRTVAAPDIQMTQSPSSLSASVGDRVTITCRASEDIYSNLAWYQQKPGKAPKLLIYDTNNLADGVPSRFSGSGSGTDFTLTISSLQPEDFATYYCQQYNNYPPTFGQGTKLEIKR
1.54 nM | 34 nM | Av-GS14-h1A11.1 (bispecific antibody, human IgG1, DVD-Ig) VH: EVQLVESGGGLVQPGGSLRLSCAASGYTFTNYGMNWVRQAPGKGLEWVGWINTYTGEPTYAADFKRRFTFSLDTSKSTAYLQMNSLRAEDTAVYYCAKYPHYYGSSHWYFDVWGQGTLVTVSSGGGGSGGGGSGGGGEVQLVESGGGLVQPGGSLRLSCAASGFTFSNFPMAWVRQAPGKGLEWVATISSSDGTTYYRDSVKGRFTISRDNAKNSLYLQMNSLRAEDTAVYYCARGYYNSPFAYWGQGTLVTVSS VL: DIQMTQSPSSLSASVGDRVTITCSASQDISNYLNWYQQKPGKAPKVLIYFTSSLHSGVPSRFSGSGSGTDFTLTISSLQPEDFATYYCQQYSTVPWTFGQGTKVEIKRGGSGGGGSGGGSDIQMTQSPSSLSASVGDRVTITCRASEDIYSNLAWYQQKPGKAPKLLIYDTNNLADGVPSRFSGSGSGTDFTLTISSLQPEDFATYYCQQYNNYPPTFGQGTKLEIKR
1.5 nM | 29 nM | Av-GS10-h1A11.1 (bispecific antibody, human IgG1, DVD-Ig) VH: EVQLVESGGGLVQPGGSLRLSCAASGYTFTNYGMNWVRQAPGKGLEWVGWINTYTGEPTYAADFKRRFTFSLDTSKSTAYLQMNSLRAEDTAVYYCAKYPHYYGSSHWYFDVWGQGTLVTVSSGGGGSGGGGSEVQLVESGGGLVQPGGSLRLSCAASGFTFSNFPMAWVRQAPGKGLEWVATISSSDGTTYYRDSVKGRFTISRDNAKNSLYLQMNSLRAEDTAVYYCARGYYNSPFAYWGQGTLVTVSS VL: DIQMTQSPSSLSASVGDRVTITCSASQDISNYLNWYQQKPGKAPKVLIYFTSSLHSGVPSRFSGSGSGTDFTLTISSLQPEDFATYYCQQYSTVPWTFGQGTKVEIKRGGSGGGGSGDIQMTQSPSSLSASVGDRVTITCRASEDIYSNLAWYQQKPGKAPKLLIYDTNNLADGVPSRFSGSGSGTDFTLTISSLQPEDFATYYCQQYNNYPPTFGQGTKLEIKR
0.65 nM | 9.3 nM | h1A11.1-GS10-Av (bispecific antibody, human IgG1, DVD-Ig; also called h1A11.GS10-Av) VH: EVQLVESGGGLVQPGGSLRLSCAASGFTFSNFPMAWVRQAPGKGLEWVATISSSDGTTYYRDSVKGRFTISRDNAKNSLYLQMNSLRAEDTAVYYCARGYYNSPFAYWGQGTLVTVSSGGGGSGGGGSEVQLVESGGGLVQPGGSLRLSCAASGYTFTNYGMNWVRQAPGKGLEWVGWINTYTGEPTYAADFKRRFTFSLDTSKSTAYLQMNSLRAEDTAVYYCAKYPHYYGSSHWYFDVWGQGTLVTVSS VL: DIQMTQSPSSLSASVGDRVTITCRASEDIYSNLAWYQQKPGKAPKLLIYDTNNLADGVPSRFSGSGSGTDFTLTISSLQPEDFATYYCQQYNNYPPTFGQGTKLEIKRGGSGGGGSGDIQMTQSPSSLSASVGDRVTITCSASQDISNYLNWYQQKPGKAPKVLIYFTSSLHSGVPSRFSGSGSGTDFTLTISSLQPEDFATYYCQQYSTVPWTFGQGTKVEIKR
